Measurements reported in patent US20190338009A1 (ZEALAND PHARMA A S, published 2019).
Square brackets hold non-standard residues; d marks the D form. Aib = CC(C)(N)C(=O)O

T1: human GLP-2 receptor (hGLP2-R) (human, UniProt O95838 1-553)
T1 sequence (looked up): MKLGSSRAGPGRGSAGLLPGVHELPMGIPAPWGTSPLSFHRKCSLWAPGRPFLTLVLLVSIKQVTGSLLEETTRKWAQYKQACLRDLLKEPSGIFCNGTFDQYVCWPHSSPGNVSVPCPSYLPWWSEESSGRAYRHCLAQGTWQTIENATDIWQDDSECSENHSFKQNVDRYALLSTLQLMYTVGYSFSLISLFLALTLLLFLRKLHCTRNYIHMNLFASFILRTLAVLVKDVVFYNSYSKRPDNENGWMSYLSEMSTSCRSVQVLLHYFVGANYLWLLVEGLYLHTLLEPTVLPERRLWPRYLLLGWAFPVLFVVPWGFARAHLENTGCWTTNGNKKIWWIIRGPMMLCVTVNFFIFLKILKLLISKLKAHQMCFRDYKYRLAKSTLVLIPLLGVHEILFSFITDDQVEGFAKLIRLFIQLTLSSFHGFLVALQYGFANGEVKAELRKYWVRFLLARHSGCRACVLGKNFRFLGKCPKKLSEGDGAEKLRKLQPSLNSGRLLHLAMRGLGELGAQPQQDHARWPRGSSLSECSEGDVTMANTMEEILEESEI

B1: Compound 12 (peptide)
peptide: H-H[Aib]EGTFTSELATILDEQAARDFIAWLHAHKITD-OH
SMILES: CC[C@H](C)[C@H](NC(=O)[C@H](Cc1ccccc1)NC(=O)[C@H](CC(=O)O)NC(=O)[C@H](CCCNC(=N)N)NC(=O)[C@H](C)NC(=O)[C@H](C)NC(=O)[C@H](CCC(N)=O)NC(=O)[C@H](CCC(=O)O)NC(=O)[C@H](CC(=O)O)NC(=O)[C@H](CC(C)C)NC(=O)[C@@H](NC(=O)[C@@H](NC(=O)[C@H](C)NC(=O)[C@H](CC(C)C)NC(=O)[C@H](CCC(=O)O)NC(=O)[C@H](CO)NC(=O)[C@@H](NC(=O)[C@H](Cc1ccccc1)NC(=O)[C@@H](NC(=O)CNC(=O)[C@H](CCC(=O)O)NC(=O)C(C)(C)NC(=O)[C@@H](N)Cc1c[nH]cn1)[C@@H](C)O)[C@@H](C)O)[C@@H](C)O)[C@@H](C)CC)C(=O)N[C@@H](C)C(=O)N[C@@H](Cc1c[nH]c2ccccc12)C(=O)N[C@@H](CC(C)C)C(=O)N[C@@H](Cc1c[nH]cn1)C(=O)N[C@@H](C)C(=O)N[C@@H](Cc1c[nH]cn1)C(=O)N[C@@H](CCCCN)C(=O)N[C@H](C(=O)N[C@H](C(=O)N[C@@H](CC(=O)O)C(=O)O)[C@@H](C)O)[C@@H](C)CC
B2: Compound 16 (peptide)
peptide: H-H[Aib]EGTFTSELATILDEQAARDFIAWLIKHKITD-OH
SMILES: CC[C@H](C)[C@H](NC(=O)[C@H](Cc1ccccc1)NC(=O)[C@H](CC(=O)O)NC(=O)[C@H](CCCNC(=N)N)NC(=O)[C@H](C)NC(=O)[C@H](C)NC(=O)[C@H](CCC(N)=O)NC(=O)[C@H](CCC(=O)O)NC(=O)[C@H](CC(=O)O)NC(=O)[C@H](CC(C)C)NC(=O)[C@@H](NC(=O)[C@@H](NC(=O)[C@H](C)NC(=O)[C@H](CC(C)C)NC(=O)[C@H](CCC(=O)O)NC(=O)[C@H](CO)NC(=O)[C@@H](NC(=O)[C@H](Cc1ccccc1)NC(=O)[C@@H](NC(=O)CNC(=O)[C@H](CCC(=O)O)NC(=O)C(C)(C)NC(=O)[C@@H](N)Cc1c[nH]cn1)[C@@H](C)O)[C@@H](C)O)[C@@H](C)O)[C@@H](C)CC)C(=O)N[C@@H](C)C(=O)N[C@@H](Cc1c[nH]c2ccccc12)C(=O)N[C@@H](CC(C)C)C(=O)N[C@H](C(=O)N[C@@H](CCCCN)C(=O)N[C@@H](Cc1c[nH]cn1)C(=O)N[C@@H](CCCCN)C(=O)N[C@H](C(=O)N[C@H](C(=O)N[C@@H](CC(=O)O)C(=O)O)[C@@H](C)O)[C@@H](C)CC)[C@@H](C)CC
B3: Compound 11 (peptide)
peptide: H-H[Aib]EGTFTSELATILDGKAARDFIAWLIAHKITD-OH
SMILES: CC[C@H](C)[C@H](NC(=O)[C@H](CC(C)C)NC(=O)[C@H](Cc1c[nH]c2ccccc12)NC(=O)[C@H](C)NC(=O)[C@@H](NC(=O)[C@H](Cc1ccccc1)NC(=O)[C@H](CC(=O)O)NC(=O)[C@H](CCCNC(=N)N)NC(=O)[C@H](C)NC(=O)[C@H](C)NC(=O)[C@H](CCCCN)NC(=O)CNC(=O)[C@H](CC(=O)O)NC(=O)[C@H](CC(C)C)NC(=O)[C@@H](NC(=O)[C@@H](NC(=O)[C@H](C)NC(=O)[C@H](CC(C)C)NC(=O)[C@H](CCC(=O)O)NC(=O)[C@H](CO)NC(=O)[C@@H](NC(=O)[C@H](Cc1ccccc1)NC(=O)[C@@H](NC(=O)CNC(=O)[C@H](CCC(=O)O)NC(=O)C(C)(C)NC(=O)[C@@H](N)Cc1c[nH]cn1)[C@@H](C)O)[C@@H](C)O)[C@@H](C)O)[C@@H](C)CC)[C@@H](C)CC)C(=O)N[C@@H](C)C(=O)N[C@@H](Cc1c[nH]cn1)C(=O)N[C@@H](CCCCN)C(=O)N[C@H](C(=O)N[C@H](C(=O)N[C@@H](CC(=O)O)C(=O)O)[C@@H](C)O)[C@@H](C)CC
B4: Compound 13 (peptide)
peptide: H-H[Aib]EGTFTSELATILDEQAARDFIAWLQAHKITD-OH
SMILES: CC[C@H](C)[C@H](NC(=O)[C@H](Cc1ccccc1)NC(=O)[C@H](CC(=O)O)NC(=O)[C@H](CCCNC(=N)N)NC(=O)[C@H](C)NC(=O)[C@H](C)NC(=O)[C@H](CCC(N)=O)NC(=O)[C@H](CCC(=O)O)NC(=O)[C@H](CC(=O)O)NC(=O)[C@H](CC(C)C)NC(=O)[C@@H](NC(=O)[C@@H](NC(=O)[C@H](C)NC(=O)[C@H](CC(C)C)NC(=O)[C@H](CCC(=O)O)NC(=O)[C@H](CO)NC(=O)[C@@H](NC(=O)[C@H](Cc1ccccc1)NC(=O)[C@@H](NC(=O)CNC(=O)[C@H](CCC(=O)O)NC(=O)C(C)(C)NC(=O)[C@@H](N)Cc1c[nH]cn1)[C@@H](C)O)[C@@H](C)O)[C@@H](C)O)[C@@H](C)CC)C(=O)N[C@@H](C)C(=O)N[C@@H](Cc1c[nH]c2ccccc12)C(=O)N[C@@H](CC(C)C)C(=O)N[C@@H](CCC(N)=O)C(=O)N[C@@H](C)C(=O)N[C@@H](Cc1c[nH]cn1)C(=O)N[C@@H](CCCCN)C(=O)N[C@H](C(=O)N[C@H](C(=O)N[C@@H](CC(=O)O)C(=O)O)[C@@H](C)O)[C@@H](C)CC
B5: Compound 14 (peptide)
peptide: H-H[Aib]EGTFTSELATILDEQAARDFIAWLYAHKITD-OH
SMILES: CC[C@H](C)[C@H](NC(=O)[C@H](Cc1ccccc1)NC(=O)[C@H](CC(=O)O)NC(=O)[C@H](CCCNC(=N)N)NC(=O)[C@H](C)NC(=O)[C@H](C)NC(=O)[C@H](CCC(N)=O)NC(=O)[C@H](CCC(=O)O)NC(=O)[C@H](CC(=O)O)NC(=O)[C@H](CC(C)C)NC(=O)[C@@H](NC(=O)[C@@H](NC(=O)[C@H](C)NC(=O)[C@H](CC(C)C)NC(=O)[C@H](CCC(=O)O)NC(=O)[C@H](CO)NC(=O)[C@@H](NC(=O)[C@H](Cc1ccccc1)NC(=O)[C@@H](NC(=O)CNC(=O)[C@H](CCC(=O)O)NC(=O)C(C)(C)NC(=O)[C@@H](N)Cc1c[nH]cn1)[C@@H](C)O)[C@@H](C)O)[C@@H](C)O)[C@@H](C)CC)C(=O)N[C@@H](C)C(=O)N[C@@H](Cc1c[nH]c2ccccc12)C(=O)N[C@@H](CC(C)C)C(=O)N[C@@H](Cc1ccc(O)cc1)C(=O)N[C@@H](C)C(=O)N[C@@H](Cc1c[nH]cn1)C(=O)N[C@@H](CCCCN)C(=O)N[C@H](C(=O)N[C@H](C(=O)N[C@@H](CC(=O)O)C(=O)O)[C@@H](C)O)[C@@H](C)CC
B6: Compound 10 (peptide)
peptide: H-H[Aib]EGTFTSELSTILDEQAARDFIAWLIAHKITD-OH
SMILES: CC[C@H](C)[C@H](NC(=O)[C@H](CC(C)C)NC(=O)[C@H](Cc1c[nH]c2ccccc12)NC(=O)[C@H](C)NC(=O)[C@@H](NC(=O)[C@H](Cc1ccccc1)NC(=O)[C@H](CC(=O)O)NC(=O)[C@H](CCCNC(=N)N)NC(=O)[C@H](C)NC(=O)[C@H](C)NC(=O)[C@H](CCC(N)=O)NC(=O)[C@H](CCC(=O)O)NC(=O)[C@H](CC(=O)O)NC(=O)[C@H](CC(C)C)NC(=O)[C@@H](NC(=O)[C@@H](NC(=O)[C@H](CO)NC(=O)[C@H](CC(C)C)NC(=O)[C@H](CCC(=O)O)NC(=O)[C@H](CO)NC(=O)[C@@H](NC(=O)[C@H](Cc1ccccc1)NC(=O)[C@@H](NC(=O)CNC(=O)[C@H](CCC(=O)O)NC(=O)C(C)(C)NC(=O)[C@@H](N)Cc1c[nH]cn1)[C@@H](C)O)[C@@H](C)O)[C@@H](C)O)[C@@H](C)CC)[C@@H](C)CC)C(=O)N[C@@H](C)C(=O)N[C@@H](Cc1c[nH]cn1)C(=O)N[C@@H](CCCCN)C(=O)N[C@H](C(=O)N[C@H](C(=O)N[C@@H](CC(=O)O)C(=O)O)[C@@H](C)O)[C@@H](C)CC
B7: Compound 15 (peptide)
peptide: H-H[Aib]EGTFTSELATILDEQAARDFIAWLIQHKITD-OH
SMILES: CC[C@H](C)[C@H](NC(=O)[C@H](Cc1ccccc1)NC(=O)[C@H](CC(=O)O)NC(=O)[C@H](CCCNC(=N)N)NC(=O)[C@H](C)NC(=O)[C@H](C)NC(=O)[C@H](CCC(N)=O)NC(=O)[C@H](CCC(=O)O)NC(=O)[C@H](CC(=O)O)NC(=O)[C@H](CC(C)C)NC(=O)[C@@H](NC(=O)[C@@H](NC(=O)[C@H](C)NC(=O)[C@H](CC(C)C)NC(=O)[C@H](CCC(=O)O)NC(=O)[C@H](CO)NC(=O)[C@@H](NC(=O)[C@H](Cc1ccccc1)NC(=O)[C@@H](NC(=O)CNC(=O)[C@H](CCC(=O)O)NC(=O)C(C)(C)NC(=O)[C@@H](N)Cc1c[nH]cn1)[C@@H](C)O)[C@@H](C)O)[C@@H](C)O)[C@@H](C)CC)C(=O)N[C@@H](C)C(=O)N[C@@H](Cc1c[nH]c2ccccc12)C(=O)N[C@@H](CC(C)C)C(=O)N[C@H](C(=O)N[C@@H](CCC(N)=O)C(=O)N[C@@H](Cc1c[nH]cn1)C(=O)N[C@@H](CCCCN)C(=O)N[C@H](C(=O)N[C@H](C(=O)N[C@@H](CC(=O)O)C(=O)O)[C@@H](C)O)[C@@H](C)CC)[C@@H](C)CC

Assays:
[1] = target: human glucagon-like peptide 1 receptor (GLP-1R) (human, UniProt P43220 24-463); assay: cell-based or functional assay
[2] = target: T1, human GLP-2 receptor (hGLP2-R); assay: cell-based or functional assay

| Binder | EC50 GLP-1 (nM); cAMP AlphaScreen, HEK293 cells expressing human GLP-1R [1] | EC50 GLP-2 (nM); cAMP AlphaScreen, HEK293 cells expressing human GLP-2R [2] |
| --- | --- | --- |
| B1 | 0.055 nM | 0.076 nM |
| B2 | 0.006 nM | 0.026 nM |
| B3 | 0.011 nM | 0.085 nM |
| B4 | 0.016 nM | 0.083 nM |
| B5 | 0.021 nM | 0.049 nM |
| B6 | 0.005 nM | 0.05 nM |
| B7 | 0.005 nM | 0.038 nM |
